US20200360435A1 (published 2020)

B1: TCR7-2 (TCR, V domains shown)
Valpha: KQEVTQIPAALSVPEGENLVLNCSFTDSAIYNLQWFRQDPGKGLTSLLLIQSSQREQTSGRLNASLDKSSGRSTLYIAASQPGDSATYLCAVSRGNARLMFGDGTQLVVKP
Vbeta: DTGVSQDPRHKITKRGQNVTFRCDPISEHNRLYWYRQTLGQGPEFLTYFQNEAQLEKSRLLSDRFSAERPKGSFSTLEIQRTEQGDSAMYLCASAEDRGEKLFFGSGTQLSVL
B2: TCR7-3 (TCR, V domains shown)
Valpha: KQEVTQIPAALSVPEGENLVLNCSFTDSAIYNLQWFRQDPGKGLTSLLLIQSSQREQTSGRLNASLDKSSGRSTLYIAASQPGDSATYLCAVSRGNNRLAFGKGNQVVVIP
Vbeta: DTGVSQDPRHKITKRGQNVTFRCDPISEHNRLYWYRQTLGQGPEFLTYFQNEAQLEKSRLLSDRFSAERPKGSFSTLEIQRTEQGDSAMYLCASSPDRADTQYFGPGTRLTVL

Biological target: HTLV-1 Tax peptide on HLA-A*24:02 (human)
Assay: multimer staining

Row | Binder | binding result
1 | B1 | recognises
2 | B2 | recognises
